Source: patent publication US20200270321A1

Columns and labels:
[1] = biological target: human CD19 (as in Table 11) (human) (UniProt P15391); test: binding to human CD19 after incubation at pH 7.4; method not stated
[2] = biological target: human CD19 (as in Table 11) (human) (UniProt P15391); test: binding to human CD19 after incubation at pH 6.0; method not stated
[3] = biological target: human CD19 (as in Table 11) (human) (UniProt P15391); test: BIAcore (SPR); format not stated

B1: wild-type humanized anti-human CD19 antibody 8B8 (antibody, V domains shown)
VH: QVQLVQSGAEVKKPGASVKVSCKASGYTFTDYIMHWVRQAPGQGLEWMGYINPYNDGSKYTEKFNGRVTMTSDTSISTAYMELSRLRSDDTAVYYCARGTYYYGSALFDYWGQGTTVTVSS
VL: DIVMTQTPLSLSVTPGQPASISCKSSQSLENSNGNTYLNWYLQKPGQSPQLLIYRVSKRFSGVPDRFSGSGSGTDFTLKISRVEAEDVGVYYCLQLTHVPYTFGQGTKLEIK
In the case of B1, the human CD19 binding after pH 7.4 incubation [%] [1] is reported as 46%, the human CD19 binding after pH 6.0 incubation [%] [2] is reported as 90% and the Kd [3] is reported as 5 nM.
